# Experimental data reported in paper PMC8555152.
# Target: microtubule associated protein 1 light chain 3 (LC3), endogenous (human (endogenous in HEK293T)) (UniProt Q9GZQ8)
# Assay: co-IP
substance,measurement,value
"HIV-1 NL4-3 Gag (p55), expressed from the provirus (natural protein)",reduction of the binding in SQSTM1-depleted cells relative to the control siRNA,50%
